In general, Km refers to the concentration of substrate that gives half-maximal velocity. Usually kcat stands for the maximal rate divided by the concentration of active sites. Broadly, the kcat/Km is the turnover number divided by the Michaelis constant.

Among the data in paper PMC10589136, “Prenylation of dimeric cyclo-L-Trp-L-Trp by the promiscuous cyclo-L-Trp-L-Ala prenyltransferase EchPT1” (Applied Microbiology and Biotechnology, 2023) are Km, kcat and kcat/Km values, retold here.

Test in all cases: purified protein
Substrate in data set [1]: CC(C)=CCOP(=O)(O)OP(=O)(O)O
Particulars: 1 mM tetratryptomycin A (3) as prenyl acceptor, 5 mM CaCl2, Tris-HCl pH 7.5, 37 °C, 30 min, formation of 3a2.

Substrate in data set [2]: O=C1N[C@@H](Cc2c[nH]c3ccccc23)C(=O)N2C3Nc4ccccc4C3(C34C[C@H]5C(=O)N[C@@H](Cc6c[nH]c7ccccc67)C(=O)N5C3Nc3ccccc34)C[C@@H]12
The conditions noted are these: 1 mM DMAPP, 5 mM CaCl2, Tris-HCl pH 7.5, 37 °C.

Substrate in data set [3]: O=C1N[C@@H](Cc2cn(C34C[C@H]5C(=O)N[C@@H](Cc6c[nH]c7ccccc67)C(=O)N5C3Nc3ccccc34)c3ccccc23)C(=O)N[C@H]1Cc1c[nH]c2ccccc12
The conditions noted are these: 1 mM DMAPP, 5 mM CaCl2, Tris-HCl pH 7.5, 37 °C, 30 min, formation of monoprenylated 4a1.

[4] abbreviates: 20 min, formation of diprenylated 5a2.
Where [5] appears, read: 30 min, formation of diprenylated 3a2.

B1: EchPT1 (Aspergillus ruber) (protein)
chain: MPSEVLTSYYDYPTHDQEAWWRDTGPLFGRFLKGAGYDVHTQYQYLVFFIKNILPSLGPYPARWRSTITPTGLPIEYSLNFQLNSRPLLRIGFEPLSRFSGTPQDPYNKIAAADLLNQLSKLQLHEFDTQLFNHFTNEFELSKSESESLQKQGGINGKSTVRSQTAFGFDLKGGRVAVKGYAFAGLKNRATGTPVGQLISNSIRNLEPQMHCWDSFSILNSYMEESDGWNEYSFVSWDCVDIERSRLKLYGVHNAVTWDKVKEMWTLGGRIENNATIKTGLELLQHMWSLLQINEGDRDYKGGFAADNGGKTLPIIWNYELNKGSPHPAPKFYFPVHGENDLQVSKSISEFFTHLGWQDHARQYPHLLRQIYPNQNISQTERLQAWISFAYNERTGPYLSVYYYSAERPPWGSDQVK
In the case of B1, the Michaelis-Menten constant (Km) was found to be 50 ± 7 µM in “purified protein [1]”, 50 ± 5 µM in “purified protein [2]” (setting [4]), 60 ± 7 µM in “purified protein [2]” (setting [5]) and 250 ± 30 µM in the data set “purified protein [3]”. The turnover number (kcat) in “purified protein [1]” amounted to 0.03 ± 0.002 s⁻¹; in “purified protein [2]” (setting [4]), 0.03 ± 0.001 s⁻¹; in the data set “purified protein [2]” (setting [5]), 0.05 ± 0.0003 s⁻¹; in “purified protein [3]”, 0.14 ± 0.01 s⁻¹. The specificity constant (kcat/Km) in the data set “purified protein [1]” turned out to be 600 M⁻¹ s⁻¹; in the data set “purified protein [2]” (setting [4]), 600 M⁻¹ s⁻¹; in “purified protein [2]” (setting [5]) it was 833 M⁻¹ s⁻¹; in “purified protein [3]”, 560 M⁻¹ s⁻¹.
